The target of series [1] is T1, c-Ret on NB41A3-mRL3 cells (UniProt P35546 29-1115, limits assumed). As to the kind of experiment: cell-based or functional assay.
Series [2] has as its target T1, c-Ret on NB41A3-mRL3 cells. As to the kind of experiment: cell-based or functional assay. The source holds these as a separate data set.
For series [3], the target named is T2, c-Ret (Mus musculus, UniProt O35118+P35546).
T2 construct: NB41A3-mRL3 cells, an adherent murine neuroblastoma cell line which expresses Ret and GFRα3; endogenous in cells; host or cells: NB41A3-mRL3 (murine neuroblastoma)
As to the kind of experiment: Kinase Receptor Activation (KIRA) ELISA: neublastin dependent phosphorylation of c-Ret in NB41A3-mRL3 cells. In kind it is cell-based, murine. The protocol:
The potency of PEGylated mutated rat neublastin was measured using neublastin dependent activation/ phosphorylation of c-Ret as a reporter for neublastin activity in an ELISA that was specific for the presence of phosphorylated RET. NB41A3-mRL3 cells, an adherent murine neuroblastoma cell line which expresses Ret and GFRα3, were plated at 2 x 10^5 cells per well in 24-well plates in Dulbecco's modified eagle medium (DMEM), supplemented with 10 % fetal bovine serum, and cultured for 18 h at 37 °C and 5 % CO2.
The cells were washed with PBS, and treated with serial dilutions of neublastin in 0.25 mL of DMEM for 10 min at 37°C and 5 % CO2. Each sample was analyzed in duplicate. The cells were washed with 1 mL of PBS, and lysed for 1h at 4 °C with 0.30 mL of 10 mM Tris HC1, pH 8.0, 0.5 % Nonidet P40, 0.2 % sodium deoxycholate, 50 mM NaF, 0.1 mM Na3 VO4,1 mM phenylmethylsulfonyl fluoride with gently rocking the plates. The lysates were further agitated by repeated pipetting and 0.25 mL of sample was transferred to a 96-well ELISA plate that had been coated with 5 µg/mL of anti-Ret mAb (AA.GE7.3) in 50 mM carbonate buffer, pH 9.6 at 4°C for 18 h, and blocked at room temperature for one hour with block buffer (20 mM Tris HC1 pH 7.5, 150 mM NaCl, 0.1% Tween-20 (TBST) containing 1 % normal mouse serum and 3 % bovine serum albumin).
After a 2 h incubation at room temperature, the wells were washed 6-times with TBST. Phosphorylated Ret was detected by incubating the wells at room temperature for 2 h with 2 µg/mL of horseradish peroxidase (HRP)-conjugated anti-phosphotyrosine 4G10 antibody in block buffer, washing 6-times with TBST, and measuring HRP activity at 450 nm with a colorometric detection reagent. The absorbance values from wells treated with lysate or with lysis buffer were measured and the background corrected signal was plotted as a function of the concentration of neublastin present in the activation mixture.
Neublastin activity was determined by its ability to stimulate c-Ret phosphorylation in NB41A3-mRL3 cells using the KIRA ELISA described in Example 3. Phosphorylated Ret was detected by incubating (2 hours) the captured receptor with HRP-conjugated phosphotyrosine antibody (4G10; 0.2 µg per well). Following the incubation, the wells were washed six times with TBST, and the HRP activity detected at 450 nm with a colorimetric assay. The absorbance values from wells treated with lysate or with lysis buffer alone were measured, background corrected, and the data plotted as a function of the concentration of neublastin present in the activation mixture.

The test system of series [4] is Chung L5/L6 spinal nerve ligation ("SNL") model. As to the kind of experiment: Reversal of tactile allodynia and thermal hyperalgesia in the spinal nerve ligation model (Von Frey and Hargreave's tests). Format: in vivo, Sprague-Dawley male rats. As for the experimental part:
Here, we describe studies to address the reversal effect ofpegylated N95K neublastin on tactile allodynia and thermal hyperalgesia in the Chung L5/L6 spinal nerve ligation ("SNL") model. Sprague-Dawley male rats (230 - 380g) were divided into two groups. All rats received the spinal nerve ligation. One group of rats (n=6) was administered vehicle by subcutaneous injection. A second group of rats (n=6 per group) were administered pegylated N95K neublastin (3,(4) X 10 kDa PEG NBN106-N95K) by subcutaneous injection at 10 µg/kg. 3(,4) X 10 kDa PEG NBN106-N95K, comprised neublastin protein that was E. coli-derived and contained an Asn-to-Lys amino acid substitution at position 95, then truncated (amino-terminus truncation of 7 amino acids; NBN106), and finally pegylated with an average of 3.3 PEG moieties per dimer ofNBN, using methoxylpoly(ethylene glycol)-succinimidyl propionate (SPA-PEG) with a molecular mass of 10,000 Da as the reactant. The vehicle consisted of 5 mM phosphate and 150 mM sodium chloride at pH 6.5. Subcutaneous injections were administered on days 3, 5, 7, 10, 12 and 14 following the operation (post-SNL). The Von Frey (Chaplan et al. (1994), J. Neurosci. Meth. 53: 55-63) and Hargreave's (Hargreaves et al. (1988), Pain. 32: 77-88) behavioral tests were used to monitor tactile and thermal responses, respectively. These pain responses were monitored prior to the spinal nerve ligation to establish baseline responses, on day 2 post-SNL to verify the presence of tactile and thermal hyperalgesia, and then on days 3, 5, 7, 10, 12, 14 and 15 post-SNL. To assess statistical significance of drug treatment relative to vehicle treatment, a 1-way analysis of variance (1-way ANOVA) was carried out followed by a post-hoc Student Neuman Keuls (SNK) test.

A short description of series [5]: Pharmacokinetic studies in rats (circulating levels after IV, s.c. or i.p. administration). In kind it is in vivo, Sprague Dawley rats. The protocol: The proteins were below the threshold of detection in the serum following subcutaneous administration. To increase bioavailability of neublastin, PEGylated forms of mutated neublastin were constructed.
The pharmokinetic properties of various PEGylated and non-PEGylated mutated neublastin products in rat and mouse models were examined (see Table 8 for summary of results).
Following a 1 mg/kg IV administration in Sprague Dawley rats, peak levels of PEGylated mutated neublastin of 3000 ng/mL were detected after 7 minutes, and levels of 700 ng/mL were detected after 24 h, 200 ng/mL after 48 h, and 100 ng/mL after 72 h. In contrast for non-PEGylated mutated neublastin N95K following a 1 mg/kg IV administration, levels of 1500 ng/mL were detected after 7 minutes, but then the levels quickly dropped to 70 ng/mL after 3 h and were not detectable after 7 h. The effects of PEGylation were even more pronounced in animals treated with PEGylated neublastin by subcutaneous administration.
Following a 1 mg/kg s.c. administration, circulating levels of PEGylated neublastin reached a maximum of 200 ng/mL after 24 h and remained at this level for the duration of the three day study.
The analysis of the PEGylated N95K samples are complicated by the presence of adducts comprising 2, 3 and 4 PEGs per molecule, which each will display a different PK profile. In early PK studies, mice were used to facilitate screening through a variety of candidates and routes of administration. […] This difference in bioavailability was particularly pronounced following i.p. administration. Levels in mice reached 1600 ng/mL after 7 hr and remained at 400 ng/mL after 24 hr. In contrast, rat levels were constant at 100 ng/mL for 4-48 hr.

On the set-up of series [6]: species or system mice. To be noted: mouse, in vivo. The text has this: The pharmokinetic properties of various PEGylated and non-PEGylated mutated neublastin products in rat and mouse models were examined (see Table 8 for summary of results). The analysis of the PEGylated […] samples are complicated by the presence of adducts comprising 2, 3 and 4 PEGs per molecule, which each will display a different PK profile. In early PK studies, mice were used to facilitate screening through a variety of candidates and routes of administration. […] This difference in bioavailability was particularly pronounced following i.p. administration. Levels in mice reached 1600 ng/mL after 7 hr and remained at 400 ng/mL after 24 hr. In contrast, rat levels were constant at 100 ng/mL for 4-48 hr. Two surprising and unexpected results emerged from the PK studies summarized in Table 8: 1) PEGylation of the amino-terminal amino acids of non-glycosylated neublastin was not sufficient to increase serum exposure substantially, and 2) PEGylation of the amino-terminal amino acid(s) of neublastin together with modification (e.g. PEGylation or glycosylation) of amino acid 95 was sufficient to increase serum exposure substantially.

T1 sequence (P35546 29-1115 limits assumed): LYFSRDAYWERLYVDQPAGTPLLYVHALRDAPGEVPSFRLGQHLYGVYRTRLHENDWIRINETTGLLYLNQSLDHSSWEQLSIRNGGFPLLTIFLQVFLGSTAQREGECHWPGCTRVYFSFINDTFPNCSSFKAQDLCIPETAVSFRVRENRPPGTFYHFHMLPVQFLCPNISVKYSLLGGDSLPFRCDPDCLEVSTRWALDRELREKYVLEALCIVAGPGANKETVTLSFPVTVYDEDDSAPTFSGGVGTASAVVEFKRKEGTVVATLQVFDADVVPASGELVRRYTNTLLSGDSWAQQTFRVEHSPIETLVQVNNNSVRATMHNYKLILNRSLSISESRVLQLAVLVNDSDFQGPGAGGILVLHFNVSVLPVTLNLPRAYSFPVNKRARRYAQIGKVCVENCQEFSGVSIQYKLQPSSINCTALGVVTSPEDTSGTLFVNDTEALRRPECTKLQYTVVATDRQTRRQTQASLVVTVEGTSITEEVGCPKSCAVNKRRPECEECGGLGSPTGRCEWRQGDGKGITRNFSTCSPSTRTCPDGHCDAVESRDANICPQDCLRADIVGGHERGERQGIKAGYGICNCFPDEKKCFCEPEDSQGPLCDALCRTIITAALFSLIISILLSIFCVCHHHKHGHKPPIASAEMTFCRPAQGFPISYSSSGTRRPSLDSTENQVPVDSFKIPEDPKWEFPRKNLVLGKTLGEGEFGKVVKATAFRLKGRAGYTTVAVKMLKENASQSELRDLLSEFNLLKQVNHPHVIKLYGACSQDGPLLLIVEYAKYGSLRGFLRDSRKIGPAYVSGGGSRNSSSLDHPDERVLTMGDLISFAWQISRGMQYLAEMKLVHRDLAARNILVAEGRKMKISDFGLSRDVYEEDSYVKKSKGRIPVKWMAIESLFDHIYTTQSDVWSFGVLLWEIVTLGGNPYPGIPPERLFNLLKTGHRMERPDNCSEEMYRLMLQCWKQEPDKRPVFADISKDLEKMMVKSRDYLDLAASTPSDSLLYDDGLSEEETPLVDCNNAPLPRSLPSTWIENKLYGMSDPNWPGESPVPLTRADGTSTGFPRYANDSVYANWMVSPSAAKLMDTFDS
T2 sequence (P35546 29-1115): as the sequence (P35546 29-1115 limits assumed) above
T2 sequence (O35118 29-397): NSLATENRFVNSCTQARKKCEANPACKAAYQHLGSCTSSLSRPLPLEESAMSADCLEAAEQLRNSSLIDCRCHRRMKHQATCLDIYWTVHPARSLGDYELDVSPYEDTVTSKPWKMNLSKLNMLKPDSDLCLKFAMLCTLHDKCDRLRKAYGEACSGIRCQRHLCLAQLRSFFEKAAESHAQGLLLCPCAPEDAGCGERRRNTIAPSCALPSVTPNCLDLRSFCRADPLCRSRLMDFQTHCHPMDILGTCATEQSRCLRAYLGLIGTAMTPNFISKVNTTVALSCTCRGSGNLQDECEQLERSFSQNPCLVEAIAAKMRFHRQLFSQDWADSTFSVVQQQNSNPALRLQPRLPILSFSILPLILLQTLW

B1: 4 X 10 kDa PEG NBN106-N95K (ligand)
chain: ARATDARGCRLRSQLVPVSALGLGHSSDELIRFRFCSGSCRRARSPHDLSLASLLGAGALRSPPGSRPISQPCCRPTRYEAVSFMDVKSTWRTVDHLSATACGCLG
modifications: 10 kDa PEG on the amino-terminal amino acid and on Lys95 of each chain (PEGylated amino acids 1,1,95,95)
Consider B1, for which the “KIRA ELISA (potency in activating Ret, fold less than wild-type NBN113)” value in series [1] is roughly 10 fold. Also, in series [2], the “KIRA: ∼EC50” value is roughly 11 nM and the “KIRA: ∼Max Efficacy vs WT” value was greater than 80%.

B2: 3 (,4) X 10 kDa PEG NBN106-N95K: mixed population of NBN106-N95K homodimers conjugated to three or four 10 kDa PEG moieties, average 3.3 PEG per dimer (conjugate)
chain: ARATDARGCRLRSQLVPVSALGLGHSSDELIRFRFCSGSCRRARSPHDLSLASLLGAGALRSPPGSRPISQPCCRPTRYEAVSFMDVKSTWRTVDHLSATACGCLG
As for B2, the “activity / potency in the KIRA ELISA (in words)” value in series [3] (compared with wild-type NBN113 / mature form) is given as “indistinguishable from that of the wild-type NBN113 material”. The “effect of two freeze-thaw cycles on potency” value in series [3] (potency in KIRA ELISA after two freeze-thaw cycles) was “no effect”. The “normalization of pain behaviors (tactile and thermal hyperalgesia)” value in series [4] (3 µg/kg s.c. on days 3, 5, 7, 10, 12 and 14, data not shown, onset somewhat slower) is reported as “significant normalization”. In addition, the “reversal of both types of neuropathic pain (tactile allodynia and thermal hyperalgesia)” value in series [4] (10 µg/kg s.c. on days 3, 5, 7, 10, 12 and 14 post-SNL, rats) was “substantial and statistically significant reversal”. Further, in series [4] (10 µg/kg s.c., rats), the “time after initiation of administration at which effect on thermal sensitivity and tactile allodynia first became statistically significant” value turned out to be 4 days; the “time after initiation of administration at which effect on thermal sensitivity and tactile allodynia reached a plateau” value is recorded as “approximately 4 days”. The “levels after 7 minutes” value in series [5] (1 mg/kg IV, Sprague Dawley rats, 7 minutes) is given as 3000 ng/mL. For the same molecule, in series [5] (1 mg/kg IV, Sprague Dawley rats, 24 h), the “levels after 24 h” value was 700 ng/mL. Further, the “levels after 48 h” value in series [5] (1 mg/kg IV, Sprague Dawley rats, 48 h) is listed as 200 ng/mL. In series [5] (1 mg/kg s.c., maximum after 24 h, remained at this level for the three day study), this molecule came in with a maximum circulating levels of 200 ng/mL. In series [6] (ip), the “levels in mice after 7 hr” value is recorded as 1600 ng/mL and the “levels in mice after 24 hr” value is reported as 400 ng/mL. The “Exposure in Mice After s.c. Administration” value in series [6] (sc) is “++”.

B3: wild-type rat neublastin (NBN113), E. coli derived (ligand)
chain: AGTRSSRARATDARGCRLRSQLVPVSALGLGHSSDELIRFRFCSGSCRRARSPHDLSLASLLGAGALRSPPGSRPISQPCCRPTRYEAVSFMDVNSTWRTVDHLSATACGCLG
As to B3, in series [1], the “IC50 in the KIRA ELISA” value is 3 to 6 nM and the “specific activity in the KIRA ELISA” value was roughly 10 nM. Moreover, the “KIRA: ∼Max Efficacy vs WT” value in series [2] was roughly 100%.

(Values after patent EP2246362B1, “Polymer conjugates of mutated neublastin” (Biogen Idec MA Inc., priority 2003, dated 2004).)
